Target: T1, C3b (human, UniProt P01024 23-667; P01024 749-1663, free SH group of the C3b thioester blocked with 20 mM iodoacetamide)
T1 construct: Complement C3 beta chain, human; Complement C3b alpha' chain, human: the alpha chain without the ANA/C3a domain; here cut by trypsin; 12 domains; calculated mass 179.3 kDa; also called active C3b; source: made from C3 purified from human plasma by trypsin (1% w/w, 120 s, 37 °C), iodoacetamide added, purified on Superose 6
Experiment: AUC; sedimentation velocity, 50,000 rpm, 20 °C; 1:1 mixture of 5.5 uM C3b and 5.5 uM FH incubated at 4 °C overnight; no zinc
Details: both partners purified

B1: complement Factor H (FH), wild-type (natural protein, human, UniProt P08603 19-1231, looked up)
chain: EDCNELPPRRNTEILTGSWSDQTYPEGTQAIYKCRPGYRSLGNVIMVCRKGEWVALNPLRKCQKRPCGHPGDTPFGTFTLTGGNVFEYGVKAVYTCNEGYQLLGEINYRECDTDGWTNDIPICEVVKCLPVTAPENGKIVSSAMEPDREYHFGQAVRFVCNSGYKIEGDEEMHCSDDGFWSKEKPKCVEISCKSPDVINGSPISQKIIYKENERFQYKCNMGYEYSERGDAVCTESGWRPLPSCEEKSCDNPYIPNGDYSPLRIKHRTGDEITYQCRNGFYPATRGNTAKCTSTGWIPAPRCTLKPCDYPDIKHGGLYHENMRRPYFPVAVGKYYSYYCDEHFETPSGSYWDHIHCTQDGWSPAVPCLRKCYFPYLENGYNQNYGRKFVQGKSIDVACHPGYALPKAQTTVTCMENGWSPTPRCIRVKTCSKSSIDIENGFISESQYTYALKEKAKYQCKLGYVTADGETSGSITCGKDGWSAQPTCIKSCDIPVFMNARTKNDFTWFKLNDTLDYECHDGYESNTGSTTGSIVCGYNGWSDLPICYERECELPKIDVHLVPDRKKDQYKVGEVLKFSCKPGFTIVGPNSVQCYHFGLSPDLPICKEQVQSCGPPPELLNGNVKEKTKEEYGHSEVVEYYCNPRFLMKGPNKIQCVDGEWTTLPVCIVEESTCGDIPELEHGWAQLSSPPYYYGDSVEFNCSESFTMIGHRSITCIHGVWTQLPQCVAIDKLKKCKSSNLIILEEHLKNKKEFDHNSNIRYRCRGKEGWIHTVCINGRWDPEVNCSMAQIQLCPPPPQIPNSHNMTTTLNYRDGEKVSVLCQENYLIQEGEEITCKDGRWQSIPLCVEKIPCSQPPQIEHGTINSSRSSQESYAHGTKLSYTCEGGFRISEENETTCYMGKWSSPPQCEGLPCKSPPEISHGVVAHMSDSYQYGEEVTYKCFEGFGIDGPAIAKCLGEKWSHPPSCIKTDCLSLPSFENAIPMGEKKDVYKAGEQVTYTCATYYKMDGASNVTCINSRWTGRPTCRDTSCVNPPTVQNAYIVSRQMSKYPSGERVRYQCRSPYEMFGDEEVMCLNGNWTEPPQCKDSTGKCGPPPPIDNGDITSFPLSVYAPASSVEYQCQNLYQLEGNKRITCRNGQWSEPPKCLHPCVISREIMENYNIALRWTAKQKLYSRTGESVEFVCKRGYRLSSRSHTLRTTCWDGKLEYPTCAKR
notes: Complement factor H, human, 20 SCR domains (SCR-1/20); Calculated mass 154.4 kDa; source: gel filtration
- stoichiometry N: 1
